# US12686710B2, “Anti-HER2 polypeptides derivatives as new diagnostic molecular probes” (BRACCO IMAGING S.P.A., priority 2019, dated 2026)
# B1: Aff03: 64 aac affitin of SEQ ID NO: 1, HER2-binding polypeptide (protein, listed as Sulfolobus acidocaldarius)
# chain: VKVKFGHMGEEKEVDTSKIYAVNRAGKFVHFAYDDNGKFGSGSVPEKDAPKELLDMLARAEREK
# Experiments:
# [1] = tested on: human (HSA), murine (MSA) and bovine (BSA) serum albumin; test: ELISA control of binding to serum albumins
# Text: (§1) To selectively target HER2 receptor, a library of affitins has been enriched against the target by several consecutive rounds of screening (up to 6 rounds). The enrichment of anti-HER2 afftins has been followed after any selection round by ELISA assay monitoring, also controlling the condition of negligible binding to human (HSA), murine (MSA) and bovine (BSA) serum albumin.
# [2] = tested on: SK-BR-3 breast adenocarcinoma cell line (overexpressing HER2 receptor); test: Cell internalization assay with Pe38 fusion, cell viability; assay type: cell-based, human; details: Aff03 tested as fusion Aff04-0-Pe38 (SEQ ID NO: 5), different concentrations
# Experimental: (§2) The cells internalization of Aff03 was evaluated using a dedicated cell-based assay. […] Such truncated form (Pe38) needs to be internalized by means of the Aff03 to keep its cytotoxic activity.
# (§3) To test internalization, then, the viability of the breast adenocarcinoma cell line SK-BR-3 (overexpressing HER2 receptor) and of the breast cancer cell line MCF-7 (low expressing HER2 receptor) was measured at different nanofitin concentrations.
# [3] = tested on: MCF-7 breast cancer cell line (low expressing HER2 receptor); test: as above; assay type: cell-based, human; details: Aff03 tested as fusion Aff04-0-Pe38 (SEQ ID NO: 5), different concentrations
# Experimental: as §2, §3
# [4] = target: HER2 (Homo sapiens, UniProt P04626); test: ELISA monitoring of affitin selection against HER2; assay type: binding; details: end of selection process
# Text: as §1
molecule,measurement,setting,value
B1,binding to albumin,[1],absence of binding to albumin
same,cytotoxic induction (cell viability) as measure of internalization,[2],dose-dependent cytotoxic induction
same,cytotoxic induction (cell viability) as measure of internalization,[3],no significant alterations
same,affinity to HER2,[4],nanomolar affinity
